These are literature values, as cited in article PMC4567469.

The target in the data set is Ran (Homo sapiens) (UniProt P62826).

For “Leader protein (LE) (from UniProt P03304)”, the Kd (commonly the concentration at which binding is half-saturated) is 3 nM.
